Measured values taken from patent US12551573B2, “Compositions and methods for the targeting of PCSK9” (Scribe Therapeutics Inc., priority 2022, dated 2026).
Changes are numbered by the printed parent chain. Like-named read-outs stand apart in the source and are kept apart here.

What was measured:
HBEGF locus = assay type: cell-based, human; settings: for Log2 (fold change): high-throughput screen of dXR repression of the HBEGF gene
B2M locus [1] = test: B2M repression (HLA-negative cells by flow cytometry) in HEK293T cells transfected with LTRP plasmids; assay type: cell-based, human; settings: for B2M repression by LTRP5 constructs with enhanced repressor domains: LTRP5 without ADD, scaffold 316 spacer 7.165, days 6/7 to 26/27, vs LTRP5-ZIM3; for Mean % HLA-negative cells: HEK293T cells, B2M-targeting spacer 7.37
Protocol: Each construct was tested in triplicate.
Each construct was tested in triplicate. […] Cells were harvested for repression analysis at day 5, day 12, day 21, and day 51 post-transfection.
Each construct was tested in triplicate. […] Cells were harvested for repression analysis at day 8, day 13, day 20, and day 27 post-transfection. […] In addition, cells were also harvested on day 5 post-transfection for gDNA extraction for bisulfite sequencing to assess off-target methylation at the non-targeted VEGFA locus, which was performed using similar methods as described in Example 13.
HEK293T cells were transfected as described in Example 14, except that the cells were transfected with 50 ng each of a plasmid encoding the LTRP construct and a plasmid encoding the gRNA. […] 72 of the 95 top repressor domains were assessed together in one experiment where B2M expression was measured at 7, 14, 19, and 26 days after transfection, and the data shown in Tables 57-60.

HBEGF gene = assay type: cell-based, human; settings: HEK293T; HBEGF-targeting spacer; toxin 0-2000 ng/mL
B2M locus [2] = test: B2M reactivation by 5-azadC (DNMT1 inhibitor) in transfected HEK293T cells; settings: B2M-targeting gRNA, 5-azadC 0-20 uM
Protocol: These transfected HEK293T cells were subsequently re-seeded at ˜30,000 cells well of a 96-well plate and were treated with 5-aza-2′-deoxycytidine (5-azadC), a DNMT1 inhibitor, at concentrations ranging from 0 μM to 20 μM. […] Treatments for each dose of 5-azadC for each experimental condition were performed in triplicates.

[3] = abundance of each domain in the library before and after diphtheria toxin selection, HEK293T cells
[4] = change in abundance of each domain in the library before and after diphtheria toxin selection
[5] = HEK293T, 50 days post-transfection, spacer 7.37 (B2M)
[6] = HEK293T, 73 days post-transfection, spacer 7.37 (B2M)

B1: DOMAIN_16611 (protein, listed as Papio anubis)
chain: MAFEDVAVYFSQEEWGLLDTAQRALYRHVMLENFTLVTSLGLSTSRPYVVIQLERGEEPWVPSGKDMTLARNTYRRLNAGS
Log2 (fold change) (HBEGF locus; [3]): 3.4786

B2: DOMAIN_16738 (protein)
chain: B1 chain with A21T, Y48H, K65T, M67T, A70S, N72T, L77R, A79P
modifications: Pan troglodytes
Log2 (fold change) (HBEGF locus; [3]): 3.5957

B3: DOMAIN_16461 (protein)
chain: AQESVTFEDVAVNFTDREWQCLTYAQRHLYKDVMLENYGNMVSVGFPFPKPPLISHLERGVELCVQDPQDRESLSCSCLVS
modifications: Cebus imitator
Log2 (fold change) (HBEGF locus; [3]): 3.1155

B4: DOMAIN_16556 (protein, listed as Rhinopithecus roxellana)
chain: B3 chain with D16N, C21S, D32H, G39R, V44L, L63P, R71K, C78Y, L79P
Log2 (fold change) (HBEGF locus; [3]): 2.4217

B5: DOMAIN_16694 (protein, listed as Callorhinus ursinus)
chain: SYGSFSFEDVTVGFTQEEWQHLGPAQRILYRDVMLENYSHLVSVGCCIPKPEVILKLEQGEQPWILEEESPSQSYPGLPTD
Log2 (fold change) (HBEGF locus; [3]): 2.0979

B6: DOMAIN_16811 (protein, listed as Balaenoptera acutorostrata)
chain: PQASVSFKDVTVEFTQEEWWQMDSAQRTLYRDVMLENYSHLVSVGYCFTKPELIFMLEQGEDPWLLEKEFVNRSSPEESQP
Log2 (fold change) (HBEGF locus; [3]): 3.5141

B7: DOMAIN_26749: repressor domain derived from the king cobra, Ophiophagus hannah; SEQ ID NO: 135 (protein)
chain: STPVTFEDVVVYFTAAEWVHLTNWQRDFYQAVMMETYELVASVAGDGVPMAEDEEGGVERPVWQYIPRGKRRRKTPQPRAD
modifications: Ophiophagus hannah
log 2 (fold change) of abundance before and after selection (HBEGF locus; HEK293T, dCasX491 fusion, scaffold 174 spacer 34.28, 2 ng/ml diphtheria toxin for 48 hours): highest log 2 (fold change) | Log2 (fold change) (HBEGF locus; [4]): 5.4323 | B2M repression by LTRP5 constructs with enhanced repressor domains (B2M locus [1]; HEK293T): most effective repressor domains

B8: DOMAIN_29304: one of the nine most effective repressor domains (protein, listed as Peromyscus maniculatus)
chain: VTYNDVHVDITQEEWALMDPSQRNLYKDVMVETYMNLTAIGYNWENLEVEEPCQNPLKHGRHERPHTGEKPYEYNQCGKAFAQP
Log2 (fold change) (HBEGF locus; [4]): 4.0496 | B2M repression by LTRP5 constructs with enhanced repressor domains (B2M locus [1]; HEK293T): most effective repressor domains

B9: DOMAIN_16566 (protein, listed as Odocoileus virginianus)
chain: HQESLTFKDVAVNFTQEEWHHVDAAQRRLYKDVMLENYSHLVSLGYQVSKPEVIFKLEQGEEPWIAEGEIQRPVCPDWKTR
Log2 (fold change) (HBEGF locus; [3]): 3.3903

B10: DOMAIN_16534 (protein, listed as Acinonyx jubatus)
chain: SHGPLSFEDVAVAFTKEEWQQLDPAQRTLYRDVMLENFSHVISLGHPVSKPDVISKLEQGEEPWIIKRDVSDWIYPERETR
Log2 (fold change) (HBEGF locus; [3]): 2.7531

B11: CasX 491: catalytically-active CasX variant 491 (protein)
chain: QEIKRINKIRRRLVKDSNTKKAGKTGPMKTLLVRVMTPDLRERLENLRKKPENIPQPISNTSRANLNKLLTDYTEMKKAILHVYWEEFQKDPVGLMSRVAQPASKKIDQNKLKPEMDEKGNLTTAGFACSQCGQPLFVYKLEQVSEKGKAYTNYFGRCNVAEHEKLILLAQLKPEKDSDEAVTYSLGKFGQRALDFYSIHVTKESTHPVKPLAQIAGNRYASGPVGKALSDACMGTIASFLSKYQDIIIEHQKVVKGNQKRLESLRELAGKENLEYPSVTLPPQPHTKEGVDAYNEVIARVRMWVNLNLWQKLKLSRDDAKPLLRLKGFPSFPLVERQANEVDWWDMVCNVKKLINEKKEDGKVFWQNLAGYKRQEALRPYLSSEEDRKKGKKFARYQLGDLLLHLEKKHGEDWGKVYDEAWERIDKKVEGLSKHIKLEEERRSEDAQSKAALTDWLRAKASFVIEGLKEADKDEFCRCELKLQKWYGDLRGKPFAIEAENSILDISGFSKQYNCAFIWQKDGVKKLNLYLIINYFKGGKLRFKKIKPEAFEANRFYTVINKKSGEIVPMEVNFNFDDPNLIILPLAFGKRQGREFIWNDLLSLETGSLKLANGRVIEKTLYNRRTRQDEPALFVALTFERREVLDSSNIKPMNLIGVDRGENIPAVIALTDPEGCPLSRFKDSLGNPTHILRIGESYKEKQRTIQAKKEVEQRRAGGYSRKYASKAKNLADDMVRNTARDLLYYAVTQDAMLIFENLSRGFGRQGKRTFMAERQYTRMEDWLTAKLAYEGLSKTYLSKTLAQYTSKTCSNCGFTITSADYDRVLEKLKKTATGWMTTINGKELKVEGQITYYNRYKRQNVVKDLSVELDRLSEESVNNDISSWTKGRSGEALSLLKKRFSHRPVQEKFVCLNCGFETHADEQAALNIARSWLFLRSQEYKKYQTNKTTGNTDKRAFVETWQSFYRKKLKEVWKPAV
modifications: listed as DNA
protection from diphtheria toxin (HBEGF gene): protects at all doses | reactivation of the B2M gene upon 5-azadC treatment (B2M locus [2]): did not exhibit reactivation of the B2M gene | Mean % HLA-negative cells (B2M locus [1]; 6 days post-transfection): 76.167% | Mean % HLA-negative cells (B2M locus [1]; 13 days post-transfection): 81.167% | Mean % HLA-negative cells (B2M locus [1]; 20 days post-transfection): 83.633% | Mean % HLA-negative cells (B2M locus [1]; 27 days post-transfection): 80.933% | % HLA-negative cells (mean) (B2M locus [1]; HEK293T, 50 days post-transfection, spacer 0.0 (non-targeting)): 0.29% | % HLA-negative cells (mean) (B2M locus [1]; [5]): 76.57% | % HLA-negative cells (mean) (B2M locus [1]; HEK293T, 73 days post-transfection, spacer 0.0 (non-targeting)): 0.71% | % HLA-negative cells (mean) (B2M locus [1]; [6]): 73.30% | B2M repression (HLA-negative cells) (B2M locus [1]; HEK293T, LTRP #1, #4, #5 plasmids and controls, scaffold 174 spacer 7.37, time course to 73 days): durable silencing of the B2M expression | repression of B2M expression by day 58 (B2M locus [1]; HEK293T, plasmid with B2M-targeting gRNA scaffold 174 spacer 7.37): ~75%

B12: dCasX491: catalytically-dead CasX variant, SEQ ID NO: 4 (protein)
chain: B11 chain with D659A, E756A, D921A
% HLA-negative cells (mean) (B2M locus [1]; [5]): 0.49% | % HLA-negative cells (mean) (B2M locus [1]; [6]): 0.83%
